This note sets out measurements from US20180216138.

The data set has as its target ferredoxin (CA_C0303) from Clostridium acetobutylicum.

B1: Ferredoxin-NADP+ reductase from Clostridium acetobutylicum encoded by CA_C0764 (protein)
chain: MDNPNLLSEEANRCLLCKNPRCKANCPINTPIPEIISLYKEGKIMEAGEILFNNNPLSVICSLVCIHEDQCKGNCVRGIKSEPIKFHEIEEEISEKYLKEAKLKNVQKDKDRIAIVGGGPAGITVAFVLANKGYNVTIFEAHDKIGGVLRYGIPEYRLTKKLVDKLEERLIEVGVKIRPNTVIGPVISLDRLLEDSYKAVFIGTGVWNPKTLDVKGETLGNVHFAIDYLKSPESYRLGKKVAVIGAGNVAMDAARTAKRNGAEVTILYRKSFNEMPASKQEIRETKEDGVEFKLFRAPIEITEEGIKVAFTENVTDAEGKIRTKIIEGKEEFFECDSVVVAVSQAPKDNIVSNTTGLDTKWGLIVTDEKGNTTKKGTFACGDVVTGAKTVVEAAAQAKVVAETIDEYCKNN
In the case of B1, the Ferredoxin NADP+ reductase specific activity worked out at 9.5 U/mg protein.
